Laboratory results taken from publication PMC10438392 (Proceedings of the National Academy of Sciences of the …, 2023).

Assays:
[1] = molecular target: T1, PurTCp (PurT of Colwellia psychrerythraea) (Colwellia psychrerythraea, UniProt Q484N1); test: SPA competition with 3H-xanthine or 3H-guanine; format: binding; conditions: 0.5 µM 3H-xanthine or 3H-guanine; pH 8.0
T1 sequence (Q484N1 1-482): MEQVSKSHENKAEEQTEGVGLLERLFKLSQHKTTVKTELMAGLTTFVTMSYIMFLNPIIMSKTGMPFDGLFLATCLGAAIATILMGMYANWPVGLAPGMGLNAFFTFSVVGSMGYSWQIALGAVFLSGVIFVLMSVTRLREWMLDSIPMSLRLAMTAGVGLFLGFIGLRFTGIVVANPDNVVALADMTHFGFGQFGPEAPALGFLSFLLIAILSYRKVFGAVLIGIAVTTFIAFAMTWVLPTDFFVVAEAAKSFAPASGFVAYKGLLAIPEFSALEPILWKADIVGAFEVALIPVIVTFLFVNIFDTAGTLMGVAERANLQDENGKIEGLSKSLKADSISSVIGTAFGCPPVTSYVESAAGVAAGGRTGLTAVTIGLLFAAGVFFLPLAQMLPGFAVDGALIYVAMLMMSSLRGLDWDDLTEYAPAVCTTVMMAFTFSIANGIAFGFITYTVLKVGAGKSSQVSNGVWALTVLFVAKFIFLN

[2] = molecular target: PurT of Colwellia psychrerythraea (PurTCp) (Colwellia psychrerythraea 34H); test: cross-linking
[3] = molecular target: PurT of Colwellia psychrerythraea (PurTCp) (Colwellia psychrerythraea 34H); test: SEC

| stoichiometry N [2] | stoichiometry N [3] | Compound | % inhibition at 250 μM [1] |
| --- | --- | --- | --- |
|  |  | c1ncc2[nH]cnc2n1 [purine] | 2-amino-6-bromopurine, 6-bromopurine, 6-thioguanine, allopurinol, isoguanine, and purine |
| 2 | 2 | PurT of Colwellia psychrerythraea (PurTCp) (natural protein) |  |
